{"source": "patent US9618524B2", "about": "“Method, composition, isolation and identification of a plaque particle and related biomarker” (Plaxgen Inc., priority 2012, dated 2017)", "molecules": {"B1": {"name": "Angiotensinogen (protein)", "chain": "DRVYIHPFHLVIHNESTCEQLAKANAGKPKDPTFIPAPIQAKTSPVDEKALQDQLVLVAAKLDTEDKLRAAMVGMLANFLGFRIYGMHSELWGVVHGATVLSPTAVFGTLASLYLGALDHTADRLQAILGVPWKDKNCTSRLDAHKVLSALQAVQGLLVAQGRADSQAQLLLSTVVGVFTAPGLHLKQPFVQGLALYTPVVLPRSLDFTELDVAAEKIDRFMQAVTGWKTGCSLMGASVDSTLAFNTYVHFQGKMKGFSLLAEPQEFWVDNSTSVSVPMLSGMGTFQHWSDIQDNFSVTQVPFTESACLLLIQPHYASDLDKVEGLTFQQNSLNWMKKLSPRTIHLTMPQLVLQGSYDLQDLLAQAELPAILHTELNLQKLSNDRIRVGEVLNSIFFELEADEREPTESTQQLNKPEVLEVTLNRPFLFAVYDQSATALHFLGRVANPLSTA"}, "B2": {"name": "Serum paraoxonase/arylesterase (protein)", "chain": "AKLIALTLLGMGLALFRNHQSSYQTRLNALREVQPVELPNCNLVKGIETGSEDLEILPNGLAFISSGLKYPGIKSFNPNSPGKILLMDLNEEDPTVLELGITGSKFDVSSFNPHGISTFTDEDNAMYLLVVNHPDAKSTVELFKFQEEEKSLLHLKTIRHKLLPNLNDIVAVGPEHFYGTNDHYFLDPYLQSWEMYLGLAWSYVVYYSPSEVRVVAEGFDFANGINISPDGKYVYIAELLAHKIHVYEKHANWTLTPLKSLDFNTLVDNISVDPETGDLWVGCHPNGMKIFFYDSENPPASEVLRIQNILTEEPKVTQVYAENGTVLQGSTVASVYKGKLLIGTVFHKALYCEL"}, "B3": {"name": "CD5 antigen-like (protein)", "chain": "SPSGVRLVGGLHRCEGRVEVEQKGQWGTVCDDGWDIKDVAVLCRELGCGAASGTPSGILYEPPAEKEQKVLIQSVSCTGTEDTLAQCEQEEVYDCSHDEDAGASCENPESSFSPVPEGVRLADGPGHCKGRVEVKHQNQWYTVCQTGWSLRAAKVVCRQLGCGRAVLTQKRCNKHAYGRKPIWLSQMSCSGREATLQDCPSGPWGKNTCNHDEDTWVECEDPFDLRLVGGDNLCSGRLEVLHKGVWGSVCDDNWGEKEDQVVCKQLGCGKSLSPSFRDRKCYGPGVGRIWLDNVRCSGEEQSLEQCQHRFWGFHDCTHQEDVAVICSG"}, "B4": {"name": "C4b-binding protein alpha chain (protein)", "chain": "NCGPPPTLSFAAPMDITLTETRFKTGTTLKYTCLPGYVRSHSTQTLTCNSDGEWVYNTFCIYKRCRHPGELRNGQVEIKTDLSFGSQIEFSCSEGFFLIGSTTSRCEVQDRGVGWSHPLPQCEIVKCKPPPDIRNGRHSGEENFYAYGFSVTYSCDPRFSLLGHASISCTVENETIGVWRPSPPTCEKITCRKPDVSHGEMVSGFGPIYNYKDTIVFKCQKGFVLRGSSVIHCDADSKWNPSPPACEPNSCINLPDIPHASWETYPRPTKEDVYVVGTVLRYRCHPGYKPTTDEPTTVICQKNLRWTPYQGCEALCCPEPKLNNGEITQHRKSRPANHCVYFYGDEISFSCHETSRFSAICQGDGTWSPRTPSCGDICNFPPKIAHGHYKQSSSYSFFKEEIIYECDKGYILVGQAKLSCSYSHWSAPAPQCKALCRKPELVNGRLSVDKDQYVEPENVTIQCDSGYGVVGPQSITCSGNRTWYPEVPKCEWETPEGCEQVLTGKRLMQCLPNPEDVKMALEVYKLSLEIEQLELQRDSARQSTLDKEL"}}, "assay_in_all_cases": "Mass spectroscopy proteomics, semi-quantitative binding affinity of serum proteins (plaqueproteome, Table 2)", "details_in_all_cases": "higher number = stronger affinity", "key": {"[1]": {"test_system": "Low density cholesterol (Chl small) plaque particles", "parameters": "species or system human", "protocol": "(§1) The goal was to isolate plaque particles synthesized in the bio-fluids in a relatively pure form to enable their subsequent use for identification of components that contribute to the plaque formation. In order to isolate cholesterol plaque particles, the plasma or serum samples obtained from atherosclerotic subjects were first centrifuged at 5,000 rpm for 5 min and the supernatants were transferred to new centrifuge tubes. Next, the supernatants were diluted in PBS to make 50% of the serum and used for incubation with cholesterol oligomers/aggregates. Each assay was performed in 1 mL reaction (800 μL of 50% plasma or serum) and 200 μL (30 μg) of the Cholesterol aggregates and the mixtures were incubated at 37° C. for 1 hr After the incubation, the mixture was directly used for sample acquisition using flow cytometer (FACS ARIA II, BD Biosciences, San Jose, Calif.). […] In order to isolate these fractions, three sets of gates were drawn in the acquisition blot to separately sort and isolate High density or high complex cholesterol particles, Low density or low complex cholesterol particles and both High and low density cholesterol particles together.\n(§2) For preparing trypsin digested peptide sequences, the isolated plaque particles were centrifuged at 10000 rpm for 5 min and the pellet containing plaque particles was resuspended in 100 μl PBS buffer. Stock solutions of digestion buffer (Ammonium Biocarbonate 50 mM), reducing buffer (DDT 100 mM) and alkylation buffer (lodoaceamide 100 mM) were prepared and stored at −20° C. for up to two months. For trypsin digestion, 100 μl of each plaque particles (2000 of Abeta-42, cholesterol, Tau and alpha-synuclein) were precipitated using cold acetone −80° C. by adding 4X's the volume. The samples were placed on dry ice for 10 min with intermittent vortex. Next, the samples were centrifuged at 4° C. at 10000 G for 10 min. Top layer of acetone was carefully removed from the tube with care not to disturb the plaque particles pellet. The samples were speed-vac for 10 min to ensure all acetone has been boiled away. The plaque particles pellet were reconstituted with 15 μl 8M Urea 100 mM Ammonium bicarbonate stock and 20 μl protease max solution. The protease max solution (Promega, Madison, Wis.) was prepared from stock by adding 60 μl 50 mM Ammonium bicarbonate and used for 3 solution digests (20 μl each). […] The tubes were incubated at 55° C. for 30 minutes. The tubes were then removed and brought to the room temperature followed by addition of 3.2 μl of 1M acrylamide and incubated at room temperature for 30 minutes. To the sample, 63 μL of 50 mM Ammonium bicarbonate was added for a final volume of 98 μl and 2 μl of trypsin (10 μg, Trypsin/Lys C Mix). After mixing the solution with pipet the samples were incubated at 37° C. overnight. After the overnight digest, the tryptic digest were quenched and acidified by adding 10 μl of 50% formic acid/water stock dilution. The samples were centrifuged at 10000 G for 2 minutes and purified using stage tip and used for MS/Mass analysis.\n(§3) All MS/MS samples were analyzed using Sequest (Thermo Fisher Scientific, San Jose, Calif., USA; version 1.0). Sequest was set up to search the SUMS_uniprot_Human database (35847 entries) assuming the digestion enzyme strict trypsin. Sequest was searched with a fragment ion mass tolerance of 1.00 Da and a parent ion tolerance of 20 PPM. Propionamide of cysteine was specified in Sequest as a fixed modification. Oxidation of methionine and phospho of serine, threonine and tyrosine were specified in Sequest as variable modifications.\n(§4) Scaffold (version Scaffold_4.2.1, Proteome Software Inc., Portland, Oreg.) was used to validate MS/MS based peptide and protein identifications. […] Protein probabilities were assigned by the Protein Prophet algorithm (Nesvizhskii, Al et al 2003)."}, "[2]": {"test_system": "High Density cholesterol (Chl Large) plaque particles", "parameters": "species or system human", "protocol": "as §1, §2, §3, §4"}, "[3]": {"target": "T1, alpha-synuclein plaque particles (Homo sapiens, UniProt P37840)", "T1 construct": "140 amino acids polypeptide", "protocol": "To prepare oligomers/aggregates of human alpha-synuclein (140 amino acids polypeptide), 1 mg of the recombinant alpha-synuclein protein was suspended in 1 mL of PBS and the sample was incubated at 37° C. for 2 hrs. After incubation, all the samples were centrifuged for 5 min. at 5000 rpm to remove precipitate, if any, and the supernatant containing oligomers/aggregates were used in vitro plaque particles formation assay. For detecting alpha-synuclein plaque particles Thioflavin S (Ex/Em=430 nm/550 nm) amyloid binding fluorescent dye (10 μg) was used.\nSimilarly, to isolate alpha-synuclein plaque particles, diluted plasma or serum samples obtained from AD subjects were used for incubation with alpha-synuclein plaque oligomers/aggregates. Each assay was performed in 1 mL reaction (800 μL of 50% plasma or serum) and 200 μL (30 μg) of the alpha-synuclein aggregates and the mixtures were incubated at 37° C. for 1 hr. To the mixture Thioflavin S dye (120 μg) was added and the sample was incubated for additional 30 min at 37° C. After the incubation, the mixture was directly used for sample acquisition using flow cytometer (FACS ARIA II, BD Biosciences, San Jose, Calif.). After initial detection of alpha-synuclein plaque particles, gates were drawn in the acquisition blot to separately sort and isolate fluorescently labeled alpha-synuclein particles.\nas §2, §3\nScaffold (version Scaffold_4.2.1, Proteome Software Inc., Portland, Oreg.) was used to validate MS/MS based peptide and protein identifications."}, "[4]": {"target": "T2, Abeta-42 plaque particles (Homo sapiens, UniProt P05067)", "T2 construct": "Abeta 1-42", "protocol": "Next to isolate serum derived Abeta-42 plaque particles, the plasma or serum samples obtained from AD subjects were first centrifuged at 5,000 rpm for 5 min and the supernatants were transferred to new centrifuge tubes. Next, the supernatants were diluted in PBS to make 50% of the serum and plasma samples and used for incubation with Abeta-42 plaque oligomers/aggregates. Each assay was performed in 1 mL reaction (800 μL of 50% plasma or serum) and 200 μL (30 μg) of the Abeta-42 aggregates and the mixtures were incubated at 37° C. for 1 hr. To the mixture Thioflavin S dye (120 μg) was added and the sample was incubated for additional 30 min at 37° C. After the incubation, the mixture was directly used for sample acquisition using flow cytometer (FACS ARIA II, BD Biosciences, San Jose, Calif.). After initial detection of Abeta-42 plaque particles in the acquisition blot, gates were drawn in fluorescent dot blot to separately sort and isolate fluorescently labeled Abeta-42 particles.\nas §2, §3\nas §4, with “2003). […] Proteins sharing significant peptide evidence were grouped into clusters. Proteins were annotated with GO terms from NCBI (downloaded Jan. 17, 2014).” for “2003).”"}, "Tau plaque particles": {"test_system": "Tau plaque particles", "parameters": "species or system human", "protocol": "For Tau-74 (74-102) (Exon 3/Insert 2 domain) preparation, 1 mg of Tau-74 was suspended in 1 mL of PBS and the sample was incubated at 37° C. for 2 hrs. Similarly for preparing Tau-275 (275-305) (Repeat 2 domain) 1 mg of the peptide was suspended in 1 mL of PBS and the sample was incubated at 37° C. for 2 hrs. After incubation, all the samples were centrifuged for 5 min. at 5000 rpm to remove precipitate, if any, and the supernatant containing oligomers/aggregates were used for in vitro amyloid plaque particles formation assay. For detecting Tau plaque particles, Thioflavin S (Ex/Em=430 nm/550 nm) amyloid binding fluorescent dye (10 μg) was used in the assay.\nNext, to isolate Tau plaque particles, as performed for Abeta-42 and Abeta-28 plaque particles isolation, diluted serum samples were used for incubation separately with Tau-45, Tau-74 and Tau-275 oligomers/aggregates. Each assay was performed in 1 mL reaction (800 μL of 50% plasma or serum) and 200 μL (30 μg) of each Tau aggregates and the mixtures were incubated at 37° C. for 1 hr. To the each mixture Thioflavin S dye (120 μg) was added and the sample was incubated for additional 30 min at 37° C. After the incubation, each sample was directly used for sample acquisition using flow cytometer (FACS ARIA II, BD Biosciences, San Jose, Calif.). After initial detection of Tau plaque particles, gates were drawn in the acquisition blot to separately sort and isolate fluorescently labeled Tau plaque particles.\nas §2, §3"}}}
{"molecule": "B1", "values": [{"measurement": "Semi-quantitative analysis of proteins binding to different plaque particles: Chl small", "setting": "[1]", "value": 9}, {"measurement": "Semi-quantitative analysis of proteins binding to different plaque particles: Chl Large", "setting": "[2]", "value": 10}, {"measurement": "Semi-quantitative analysis of proteins binding to different plaque particles: Synuclein", "setting": "[3]", "value": 7}, {"measurement": "Semi-quantitative analysis of proteins binding to different plaque particles: Abeta-42", "setting": "[4]", "value": 14}, {"measurement": "Semi-quantitative analysis of proteins binding to different plaque particles: Tau", "setting": "Tau plaque particles", "value": 15}]}
{"molecule": "B2", "values": [{"measurement": "Semi-quantitative analysis of proteins binding to different plaque particles: Chl small", "setting": "[1]", "value": 6}, {"measurement": "Semi-quantitative analysis of proteins binding to different plaque particles: Chl Large", "setting": "[2]", "value": 5}, {"measurement": "Semi-quantitative analysis of proteins binding to different plaque particles: Synuclein", "setting": "[3]", "value": 7}, {"measurement": "Semi-quantitative analysis of proteins binding to different plaque particles: Abeta-42", "setting": "[4]", "value": 2}, {"measurement": "Semi-quantitative analysis of proteins binding to different plaque particles: Tau", "setting": "Tau plaque particles", "value": 3}]}
{"molecule": "B3", "values": [{"measurement": "Semi-quantitative analysis of proteins binding to different plaque particles: Chl small", "setting": "[1]", "value": 7}, {"measurement": "Semi-quantitative analysis of proteins binding to different plaque particles: Chl Large", "setting": "[2]", "value": 6}, {"measurement": "Semi-quantitative analysis of proteins binding to different plaque particles: Synuclein", "setting": "[3]", "value": 6}, {"measurement": "Semi-quantitative analysis of proteins binding to different plaque particles: Abeta-42", "setting": "[4]", "value": 4}, {"measurement": "Semi-quantitative analysis of proteins binding to different plaque particles: Tau", "setting": "Tau plaque particles", "value": 3}]}
{"molecule": "B4", "values": [{"measurement": "Semi-quantitative analysis of proteins binding to different plaque particles: Chl small", "setting": "[1]", "value": 8}, {"measurement": "Semi-quantitative analysis of proteins binding to different plaque particles: Chl Large", "setting": "[2]", "value": 8}, {"measurement": "Semi-quantitative analysis of proteins binding to different plaque particles: Synuclein", "setting": "[3]", "value": 7}, {"measurement": "Semi-quantitative analysis of proteins binding to different plaque particles: Abeta-42", "setting": "[4]", "value": 0}, {"measurement": "Semi-quantitative analysis of proteins binding to different plaque particles: Tau", "setting": "Tau plaque particles", "value": 1}]}
